# In patent publication US7507799:
# T1: rat BDNF secreted by adenovirus-infected 293T or endothelial cells (proforms of 30 kDa and 28 kDa)
# T1 sequence: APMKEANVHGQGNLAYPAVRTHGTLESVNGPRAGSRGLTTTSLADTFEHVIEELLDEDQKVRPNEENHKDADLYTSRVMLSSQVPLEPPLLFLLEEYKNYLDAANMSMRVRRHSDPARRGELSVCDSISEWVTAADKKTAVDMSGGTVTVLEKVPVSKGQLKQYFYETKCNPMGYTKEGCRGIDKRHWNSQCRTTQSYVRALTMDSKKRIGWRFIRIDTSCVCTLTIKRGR
# How the values were obtained:
# [1] = test system: His-tagged cleavage resistant pro-NGF (point mutant, K-R cleavage site at 120,121 mutated to A-A)
# [2] = test system: T1, rat BDNF secreted by adenovirus-infected 293T or endothelial cells (proforms of 30 kDa and 28 kDa)
protein,measurement,setting,value
"MMP-7 (enzyme, UniProt P09237 95-267, looked up, species assumed) Matrilysin: YSLFPNSPKWTSKVVTYRIVSYTRDLPHITVDRLVSKALNMWGKEIPLHFRKVVWGTADIMIGFARGAHGDSYPFDGPGNTLAHAFAPGTGLGGDAHFDEDERWTDGSSLGINFLYAATHELGHSLGMGHSSDPNAVMYPTYGNGDPQNFKLSQDDIKGIQKLYGKRSNSRKK","proteolytic cleavage, Western blot",[1],"incubation of the pro-NGF with MMP-7 but not MMP-2, -3, or -9 resulted in cleavage of the 30 kD proform of NGF to the 17 kD form"
same,"proteolytic cleavage in endothelial media, Western blot",[2],"In endothelial media, only plasmin and MMP-7 appeared to cleave the large proform"
same,"proteolytic cleavage, Western blot",[2],"Treatment of the media with recombinant MMP7 resulted in a reduction in the high molecular weight isoforms of 30 kDa or 28 kDa, and the generation of a novel form of approximately 17 kDa"
